Results on 32 variants are retold here after the RNAGym collection of RNA variant scans (doi:10.7554/elife.80360).

B1: HDV Ribozyme (parent)
chain: GGCCGGCAUGGUCCCAGCCUCCUCGCUGGCGCCGGCUGGGCAACAUUCCGAGGGGACCGUCCCCUCGGUAAUGGCGAAUGGGACCCA

This data set covers variants of B1. The experiment in a line: self-cleavage, relative activity (ratio to wild type); higher = more cleavage; co-transcriptional.
Consider GGCCUGCAUGGUCCCAGCCUCCUCGCUGGCUCCGGCUGGGCAACAUUCCGAGGGGACCGUCCCCUCGGUAAUGGCGAAUGGGACCCA, for which the self-cleavage came out at 0.277.

Turning to GGCCUGCAUGGUCCCAGCCUCCUCGCUGGCGCCGGCUGGGCAACAUUCCGAGGGGACCGUCCCCUCGGUAAUGGCGAAUGGCACCCA, the self-cleavage was determined as 0. For the variant GGCCUGCAUGGUCCCAGCCUCCUCGCUGGCGCCGGCUGGGCAACAUUCCGAGGGGACAGUCCCCUCGGUAAUGGCGAAUGGGACCCA, the self-cleavage amounted to 0.277. As to GGCCUGCAAGGUCCCAGCCUCCUCGCUGGCGCCGGCUGGGCAACAUUCCGAGGGGACCGUCCCCUCGGUAAUGGCGAAUGGGACCCA, the self-cleavage amounted to 0.578. Under GGCCUGCAUGGUCCCAGCCUCCUCGCUGGCGCCGGCUGGGCAACAUUCCGAGGGGACCGUCCCCUCGGUAAUGGCGAAUGAGACCCA stands 0.147; under GGCCUGCAUGGUCCCAGCCUCCUCGCUGGCGCCGGCUGGGCAACAUUCCGAGGGGACCGUCCCCUCGGUAAUGGCGAAUGCGACCCA, 0; under GGCCUGCAUGGUCCCAGCCUCCUCGCUGGCGCCGGCUGGGCAACAUUCCGAGGGGACCGUCUCCUCGGUAAUGGCGAAUGGGACCCA, 0.467. As for GGCCUGCAUGGUCCCAGCCUCCUCGCUGGCGCCGGCUGGGCAACAUUCCGAGGGGACCGUCACCUCGGUAAUGGCGAAUGGGACCCA, the self-cleavage was determined as 0.369. Take GGCCUGCAUGGUCCCAGCCUCCUCGCUGGCGCCGGCUGGGCAACAUUCCGAGGGAACCGUCCCCUCGGUAAUGGCGAAUGGGACCCA: the self-cleavage is 0.467.

As for GGCCUGCAUGGUCCCAGCCUCCUCGCUGGCGCCGGCUGGACAACAUUCCGAGGGGACCGUCCCCUCGGUAAUGGCGAAUGGGACCCA, the self-cleavage was 0.364. GGCCUGCAUGGUCCCAGCCUCCUCGCUGGCGCCGGCUGGCCAACAUUCCGAGGGGACCGUCCCCUCGGUAAUGGCGAAUGGGACCCA: the self-cleavage worked out at 0.115. Regarding GGCCUGCAUGGUCCCAGCCUCCUCGCUGGCGCCGGCUGGUCAACAUUCCGAGGGGACCGUCCCCUCGGUAAUGGCGAAUGGGACCCA, the self-cleavage was 0.155.

Take GGCCUGCAUAGUCCCAGCCUCCUCGCUGGCGCCGGCUGGGCAACAUUCCGAGGGGACCGUCCCCUCGGUAAUGGCGAAUGGGACCCA: the self-cleavage came out at 0.135. For GGCCUGCAUGGUCCCAGCCUCCUCGCUGGCGCCGACUGGGCAACAUUCCGAGGGGACCGUCCCCUCGGUAAUGGCGAAUGGGACCCA, the self-cleavage was 0.156.

As to GGCCUGCAUGGUCCCAGCCUCCUCGCUGGCGCCGUCUGGGCAACAUUCCGAGGGGACCGUCCCCUCGGUAAUGGCGAAUGGGACCCA, the self-cleavage was 0.108.

Take GGCCUGCAUGGUCCCAGCCUCCUCGCUGGCGCCGGCUGGGCAACAUUCCGAGGGGACCGUCCCCUCGGUAAUGGCGAAUGGGACUCA: the self-cleavage turned out to be 0.399. Consider GGCCUGCAUGGUCCCAGCCUCCUCGCUGGCGCCGGCUGGGCAACAUUCCGAGGGGACCGUCCCCUCGGUAAUGGCGAAUGGGACACA, for which the self-cleavage is 0.594. GGCCUGCAUGCUCCCAGCCUCCUCGCUGGCGCCGGCUGGGCAACAUUCCGAGGGGACCGUCCCCUCGGUAAUGGCGAAUGGGACCCA: the self-cleavage came out at 0.

As to GGCCUGCAUGGUCCCAGCCUCCUCGCUGGCGCCGGCUGGGCAACAUUCCGAGGGGACCCUCCCCUCGGUAAUGGCGAAUGGGACCCA, the self-cleavage was 0.415. Take GGCCUGCAUGGUCCCAGCCUCCUCGCUGGCGCCGGCUGGGCAACAUUCCGAGGGGACCGUCCCCUUGGUAAUGGCGAAUGGGACCCA: the self-cleavage was determined as 0.677.

As for GGCCUGCAUGGUCCCAGCCUCCUCGCUGGCGCCGGCUGGGCAACAUUCCGAGGGGACCGUCCCCUAGGUAAUGGCGAAUGGGACCCA, the self-cleavage amounted to 0.609.

Regarding GGCCUGCAUGGUCCCAGCCUCCUCGCUGGCGCCGGCUGGGCAACAUUCCGAGGGGACCGUCCCCUCGGUAAUGGCUAAUGGGACCCA, the self-cleavage stood at 0.529.

In the case of GGCCUGCAUGGUCCCAGCCUCCUCGCUGGCGCCGGCUGGGCAACAUUCCGAGGGGACCGUCCCCUCGGUAAUGGCGAAUGGGACCUA, the self-cleavage was determined as 0.554. As to GGCCUGCAUGGUCCCAGCCUCCUCGCUGGCGCCGGCUGGGCAACAUUCCGAGGGGACCGUCCCCUCGGUAAUGGCGAAUGGGACCAA, the self-cleavage was determined as 0.755. For the variant GGCCUGCAUGGUCCCAGCCUCCUCGCUGGCGCCGGCUGGGCAACACUCCGAGGGGACCGUCCCCUCGGUAAUGGCGAAUGGGACCCA, the self-cleavage was found to be 0. Regarding GGCCUGCAUGGUCCCAGCCUCCUCGCUGGCGCCGGCUGGGCAACAGUCCGAGGGGACCGUCCCCUCGGUAAUGGCGAAUGGGACCCA, the self-cleavage came out at 0. For the variant GGCCUGCAUGGUCCCAGCCUCCUCACUGGCGCCGGCUGGGCAACAUUCCGAGGGGACCGUCCCCUCGGUAAUGGCGAAUGGGACCCA, the self-cleavage was found to be 0.0346. On to GGCCUGCAUGGUCCCAGCCUCCUCGCUGGCGCCGGCUGGGCAACAUUCCGAGGGGACCGUCCCCUCGGUAAUGUCGAAUGGGACCCA, for which the self-cleavage was determined as 0. Consider GGCCUGCAUGGUCCCAGCCUCCUCGCUGGCGCCGGCUGGGCAACAUUCCGAGGGGACCGUCCUCUCGGUAAUGGCGAAUGGGACCCA, for which the self-cleavage was 0.38. For the variant GGCCUGCAUGGUCCCAGCCUCCUCGCUGGCGCCGGCUGGGCAACAUUCCGAGGGGACCGUCCGCUCGGUAAUGGCGAAUGGGACCCA, the self-cleavage turned out to be 0. Turning to GGCCUGCAUGGUCCCAGCCUCCUCGCUGGCGCCGGCUGGGCAACAUUCCGAGGGGACCGUCCACUCGGUAAUGGCGAAUGGGACCCA, the self-cleavage is 0.332. Regarding GGCCUGCAUGGUCCCAGCCUCCUCGCUGGCGCCGGUUGGGCAACAUUCCGAGGGGACCGUCCCCUCGGUAAUGGCGAAUGGGACCCA, the self-cleavage came to 0.104.
